The target of the test is T1, Shp1/Ubx1 (purified) (S. cerevisiae, UniProt P34223 1-423).
T1 construct: Shp1/Ubx1, UBX-family cofactor of Cdc48, S. cerevisiae; also called Shp1/Uxb1; source: purified
T1 sequence (looked up): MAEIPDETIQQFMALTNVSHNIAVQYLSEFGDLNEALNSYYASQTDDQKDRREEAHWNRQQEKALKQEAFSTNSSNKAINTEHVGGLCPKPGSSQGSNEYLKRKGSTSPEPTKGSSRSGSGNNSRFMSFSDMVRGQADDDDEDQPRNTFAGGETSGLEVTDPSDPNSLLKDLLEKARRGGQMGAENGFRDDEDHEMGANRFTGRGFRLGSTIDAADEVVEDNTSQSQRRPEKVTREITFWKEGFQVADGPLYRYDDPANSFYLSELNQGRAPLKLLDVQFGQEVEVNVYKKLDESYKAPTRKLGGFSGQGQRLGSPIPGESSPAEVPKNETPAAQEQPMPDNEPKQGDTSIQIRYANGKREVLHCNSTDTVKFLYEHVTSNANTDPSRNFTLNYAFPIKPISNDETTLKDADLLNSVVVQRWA
As to the kind of experiment: ITC; 25 °C; 220 μM Shp1 injected into 16 μM Cdc48-NTD (WT or C115S); 2 μL injections, 150 s spacing; Malvern MicroCal PEAQ-ITC. To be noted: both partners purified. Background: In ITC the heat of successive injections is recorded.

Among the data in article PMC12137173, “Cdc48 plays a crucial role in redox homeostasis through dynamic reshaping of its interactome during early stationary phase” (Redox Biology, 2025) are Kd values, retold here.

B1: Cdc48-NTD-WT (domain or fragment)
chain: MGEEHKPLLDASGVDPREEDKTATAILRRKKKDNMLLVDDAINDDNSVIAINSNTMDKLELFRGDTVLVKGKKRKDTVLIVLIDDELEDGACRINRVVRNNLRIRLGDLVTIHPCPDIKYATRISVLPIADTIEGITGNLFDVFLKPYFVEAYRPVRKGDHFVVRGGMRQVEFKVVDVEPEEYAVVAQDTIIHWEGEPINREDEENNMN
modifications: Construct limits are not printed. Taken by convention as the equivalent of human p97 N domain 1-199, using the +10 offset shown by Cys209 hVCP = Cys219 Cdc48.
As a reminder, the Kd is the constant that tells how readily two partners part at equilibrium. A low value points to a tighter complex. On to B1, for which the Kd was found to be 14.2 µM.
